In patent publication US20170305997A1 (Janssen / Centocor, published 2017):

Columns and labels:
[1] = target: Recombinant human c-Met Fc chimera (human) (UniProt P08581); assay: SPR, serine scan in the ECB15 context
human c-Met on cells [2] = target: T1, human c-Met on cells (human, UniProt P08581 25-1390); assay: cell-based or functional assay
human c-Met on cells [3] = target: T1, human c-Met on cells; assay: binding to NCI-H441 cells, anti-His fluorescence
Description: Purified FN3 domains (50 μL/well; 0 to 1000 nM) were added to the cells for 1 hour at 4° C. in duplicate plates. […] Cells were incubated with biotinylated-anti HIS antibody (diluted 1:160 in FACS stain buffer, 50 μL/well, R&D Systems, cat # BAM050) for 30 minutes at 4° C. […] Cells were washed three times with FACS stain buffer (150 μL/well) and left in FACS stain buffer (50 μL/well).

| Fold Change of KD against the parent [1] [fold] | Inhibition of Proliferation of U87-MG cells (IC50) (human c-Met on cells [2]) [nM] | pMet inhibition in H441 cells (IC50) (human c-Met on cells [2]) | EC50 (human c-Met on cells [3]) [nM] | Binder | further results |
| --- | --- | --- | --- | --- | --- |
| 1 |  |  |  | ECB15 (designed binder, not shown: small tags and cut ends) MLPAPKNLVVSEVTEDSARLSWDDPWAFYESFLIQYQESEKVGEAIVLTVPGSERSYDLTGLKPGTEYTVSIYGVHNVYKDTNMRGLPLSAIFTTAPAPAPAPAPLPAPKNLVVSRVTEDSARLSWTAPDAAFDSFWIRYFEFLGSGEAIVLTVPGSERSYDLTGLKPGTEYVVNIMGVKGGKISPPLSAIFTT | Kd [1]: 0.4 nM; koff [1]: 0.000133 s⁻¹; kon [1]: 351000 M⁻¹ s⁻¹ |
|  | 1190 | 1.42 µM |  | P114AR5P75-E9 (designed binder) LPAPKNLVVSRVTEDSARLSWTAPDAAFDSFFIRYDEFLRSGEAIVLTVPGSERSYDLTGLKPGTEYWVTILGVKGGLVSTPLSAIFTTHHHHHH |  |
|  | 17.4 | 9.8 nM |  | P114AR7P95-B9 (designed binder) LPAPKNLVVSRVTEDSARLSWTAPDAAFDSFWIRYFEFLGSGEAIVLTVPGSERSYDLTGLKPGTEYVVQILGVKGGSISVPLSAIFTTHHHHHH |  |
|  | 692 | 659 nM | 11.3 | P114AR7P95-G7 (designed binder) LPAPKNLVVSRVTEDSARLSWTAPDAAFDSFWIRYFELLSTGEAIVLTVPGSERSYDLTGLKPGTEYVVNIMGVKGGSISPPLSAIFTTHHHHHH |  |
|  | 196 | 124 nM | 3.4 | P114AR7P94-E5 (designed binder) LPAPKNLVVSRVTEDSARLSWTAPDAAFDSFWIRYFEFLGSGEAIVLTVPGSERSYDLTGLKPGTEYAVNIMGVKGGRVSVPLSAIFTTHHHHHH |  |
|  | 350 | 165 nM | 4.9 | P114AR7P92-F6 (designed binder) LPAPKNLVVSRVTEDSARLSWTAPDAAFDSFWIRYFEFLGSGEAIVLTVPGSERSYDLTGLKPGTEYVVNILGVKGGGLSVPLSAIFTTHHHHHH |  |
|  | 9.3 | 5 nM | 1.4 | P114AR7P94-A3 (designed binder, also called P114AR7P95-A3; P114ARP94-A3) LPAPKNLVVSRVTEDSARLSWTAPDAAFDSFWIRYFEFLGSGEAIVLTVPGSERSYDLTGLKPGTEYVVNIMGVKGGKISPPLSAIFTTHHHHHH |  |
|  | 19.4 | 19.5 nM | 1.4 | P114AR7P95-D4 (designed binder) LPAPKNLVVSRVTEDSARLSWTAPDAAFDSFWIRYFEFLGSGEAIVLTVPGSERSYDLTGLKPGTEYVVQILGVKGGYISIPLSAIFTTHHHHHH |  |
|  | 124 | 155 nM | 5.9 | P114AR7P92-G8 (designed binder) LPAPKNLVVSRVTEDSARLSWTAPDAAFDSFVIRYFEFLGSGEAIVLTVPGSERSYDLTGLKPGTEYVVQILGVKGGYISIPLSAIFTTHHHHHH |  |
|  | 281 | 210 nM | 4.1 | P114AR7P95-H8 (designed binder) LPAPKNLVVSRVTEDSARLSWTAPDAAFDSFWIRYFEFVSKGEAIVLTVPGSERSYDLTGLKPGTEYVVNIMGVKGGSISPPLSAIFTTHHHHHH |  |
|  | 104 | 460 nM | 3.8 | P114AR7P93-G8 (designed binder) LPAPKNLVVSRVTEDSARLSWTAPDAAFDSFWIRYFEFLGSGEAIVLTVPGSERSYDLTDLKPGTEYGVTINGVKGGRVSTPLSAIFTTHHHHHH |  |
| 68 |  |  |  | A3 F36S (designed binder) LPAPKNLVVSEVTEDSARLSWDDPWAFYESFLIQYQESEKVGEAIVLTVPGSERSYDLTGLKPGTEYTVSIYGVHNVYKDTNMRGLPLSAIFTTAPAPAPAPAPLPAPKNLVVSRVTEDSARLSWTAPDAAFDSFWIRYSEFLGSGEAIVLTVPGSERSYDLTGLKPGTEYVVNIMGVKGGKISPPLSAIFTT |  |
| 14.8 |  |  |  | A3 N70S (designed binder) LPAPKNLVVSEVTEDSARLSWDDPWAFYESFLIQYQESEKVGEAIVLTVPGSERSYDLTGLKPGTEYTVSIYGVHNVYKDTNMRGLPLSAIFTTAPAPAPAPAPLPAPKNLVVSRVTEDSARLSWTAPDAAFDSFWIRYFEFLGSGEAIVLTVPGSERSYDLTGLKPGTEYVVSIMGVKGGKISPPLSAIFTT |  |
| 4.25 |  |  |  | A3 G40S (designed binder) LPAPKNLVVSEVTEDSARLSWDDPWAFYESFLIQYQESEKVGEAIVLTVPGSERSYDLTGLKPGTEYTVSIYGVHNVYKDTNMRGLPLSAIFTTAPAPAPAPAPLPAPKNLVVSRVTEDSARLSWTAPDAAFDSFWIRYFEFLSSGEAIVLTVPGSERSYDLTGLKPGTEYVVNIMGVKGGKISPPLSAIFTT |  |

Continued, binder first:

| Binder | Fold Change of KD against the parent [1] [fold] | Inhibition of Proliferation of U87-MG cells (IC50) (human c-Met on cells [2]) [nM] | pMet inhibition in H441 cells (IC50) (human c-Met on cells [2]) | EC50 (human c-Met on cells [3]) [nM] | further results |
| --- | --- | --- | --- | --- | --- |
| P114AR7P95-D3 (designed binder) LPAPKNLVVSRVTEDSARLSWTAPDAAFDSFWIRYFEFLGSGEAIVLTVPGSERSYDLTGLKPGTEYVVNIMGVKGGSISYPLSAIFTTHHHHHH |  | 1.7 | 4.6 nM |  |  |
| P114AR7P92-F3 (designed binder) LPAPKNLVVSRVTEDSARLSWTAPDAAFDSFWIRYFEFLGSGEAIVLTVPGSERSYDLTGLKPGTEYIVNIMGVKGGSISHPLSAIFTTHHHHHH |  | 2.7 | 8.3 nM |  |  |
| P114AR7P93-H9 (designed binder) LPAPKNLVVSRVTEDSARLSWTAPDAAFDSFWIRYFEFLGSGEAIVLTVPGSERSYDLTGLKPGTEYVVQIIGVKGGHISLPLSAIFTTHHHHHH |  | 270 | 288 nM | 12.9 |  |
| P114AR7P95-F10 (designed binder) LPAPKNLVVSRVTEDSARLSWTAPDAAFDSFWIRYFEFTTAGEAIVLTVPGSERSYDLTGLKPGTEYVVNIMGVKGGSISPPLSAIFTTHHHHHH |  | 130 | 188 nM | 4.4 |  |
| P114AR7P93-D11 (designed binder) LPAPKNLVVSRVTEDSARLSWTAPDAAFDSFWIRYFEFLGSGEAIVLTVPGSERSYDLTGLKPGTEYVVGINGVKGGYISYPLSAIFTTHHHHHH |  | 14.4 | 16 nM | 2.3 |  |
| P114AR7P95-E3 (designed binder) LPAPKNLVVSRVTEDSARLSWTAPDAAFDSFWIRYFEFLGSGEAIVLTVPGSERSYDLTGLKPGTEYVVQIMGVKGGTVSPPLSAIFTTHHHHHH |  | 209 | 205 nM | 3.2 |  |
| P114AR7P92-H5 (designed binder) LPAPKNLVVSRVTEDSARLSWTAPDAAFDSFWIRYLEFLLGGEAIVLTVPGSERSYDLTGLKPGTEYVVQIMGVKGGTVSPPLSAIFTTHHHHHH |  | 672 | 766 nM | 22 |  |
| A3 K78S (designed binder) LPAPKNLVVSEVTEDSARLSWDDPWAFYESFLIQYQESEKVGEAIVLTVPGSERSYDLTGLKPGTEYTVSIYGVHNVYKDTNMRGLPLSAIFTTAPAPAPAPAPLPAPKNLVVSRVTEDSARLSWTAPDAAFDSFWIRYFEFLGSGEAIVLTVPGSERSYDLTGLKPGTEYVVNIMGVKGGSISPPLSAIFTT | 0.75 |  |  |  |  |
| A3 W32S (designed binder) LPAPKNLVVSEVTEDSARLSWDDPWAFYESFLIQYQESEKVGEAIVLTVPGSERSYDLTGLKPGTEYTVSIYGVHNVYKDTNMRGLPLSAIFTTAPAPAPAPAPLPAPKNLVVSRVTEDSARLSWTAPDAAFDSFSIRYFEFLGSGEAIVLTVPGSERSYDLTGLKPGTEYVVNIMGVKGGKISPPLSAIFTT | 74.5 |  |  |  |  |
| A3 P81S (designed binder) LPAPKNLVVSEVTEDSARLSWDDPWAFYESFLIQYQESEKVGEAIVLTVPGSERSYDLTGLKPGTEYTVSIYGVHNVYKDTNMRGLPLSAIFTTAPAPAPAPAPLPAPKNLVVSRVTEDSARLSWTAPDAAFDSFWIRYFEFLGSGEAIVLTVPGSERSYDLTGLKPGTEYVVNIMGVKGGKISSPLSAIFTT | 4.25 |  |  |  |  |
| A3 L39S (designed binder) LPAPKNLVVSEVTEDSARLSWDDPWAFYESFLIQYQESEKVGEAIVLTVPGSERSYDLTGLKPGTEYTVSIYGVHNVYKDTNMRGLPLSAIFTTAPAPAPAPAPLPAPKNLVVSRVTEDSARLSWTAPDAAFDSFWIRYFEFSGSGEAIVLTVPGSERSYDLTGLKPGTEYVVNIMGVKGGKISPPLSAIFTT | 6.75 |  |  |  |  |
| A3 V68S (designed binder) LPAPKNLVVSEVTEDSARLSWDDPWAFYESFLIQYQESEKVGEAIVLTVPGSERSYDLTGLKPGTEYTVSIYGVHNVYKDTNMRGLPLSAIFTTAPAPAPAPAPLPAPKNLVVSRVTEDSARLSWTAPDAAFDSFWIRYFEFLGSGEAIVLTVPGSERSYDLTGLKPGTEYSVNIMGVKGGKISPPLSAIFTT | 9 |  |  |  |  |
